Reference: article PMC3654228 (Nature communications, 2012)

T1: Nxf1 (of the Nxf1:p15 used for gel filtration) (human, UniProt Q9UBU9 1-619)
T1 sequence (looked up): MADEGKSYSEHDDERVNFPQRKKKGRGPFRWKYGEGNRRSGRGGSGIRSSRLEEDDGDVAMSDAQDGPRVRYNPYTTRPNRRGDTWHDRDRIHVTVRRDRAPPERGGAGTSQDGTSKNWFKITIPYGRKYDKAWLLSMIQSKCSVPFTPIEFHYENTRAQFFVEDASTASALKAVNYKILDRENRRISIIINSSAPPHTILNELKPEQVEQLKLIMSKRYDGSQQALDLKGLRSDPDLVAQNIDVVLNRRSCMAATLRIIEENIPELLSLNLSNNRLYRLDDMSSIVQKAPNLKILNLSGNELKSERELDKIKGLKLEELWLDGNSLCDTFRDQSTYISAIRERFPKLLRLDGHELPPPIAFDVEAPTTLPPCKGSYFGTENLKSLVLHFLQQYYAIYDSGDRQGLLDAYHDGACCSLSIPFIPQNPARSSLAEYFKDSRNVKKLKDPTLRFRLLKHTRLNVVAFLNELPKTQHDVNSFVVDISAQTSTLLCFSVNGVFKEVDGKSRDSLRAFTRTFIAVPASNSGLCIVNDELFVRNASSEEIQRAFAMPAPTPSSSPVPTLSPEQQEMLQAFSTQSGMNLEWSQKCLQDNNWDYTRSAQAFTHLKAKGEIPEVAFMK

T2: 6His-RBD-psiRRM-LRR (Homo sapiens, UniProt Q9UBU9 1-372)
T2 sequence: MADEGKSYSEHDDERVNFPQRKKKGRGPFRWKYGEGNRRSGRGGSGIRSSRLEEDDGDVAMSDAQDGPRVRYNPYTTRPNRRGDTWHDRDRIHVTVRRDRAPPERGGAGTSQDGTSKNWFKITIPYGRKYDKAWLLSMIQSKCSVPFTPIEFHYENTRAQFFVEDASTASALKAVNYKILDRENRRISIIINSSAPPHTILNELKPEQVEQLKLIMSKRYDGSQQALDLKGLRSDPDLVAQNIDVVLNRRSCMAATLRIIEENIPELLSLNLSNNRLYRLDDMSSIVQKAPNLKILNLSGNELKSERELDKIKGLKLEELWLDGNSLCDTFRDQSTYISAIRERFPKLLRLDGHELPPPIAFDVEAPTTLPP

T3: GST-RBD-psiRRM-LRR (Homo sapiens, UniProt Q9UBU9 1-372)
T3 sequence: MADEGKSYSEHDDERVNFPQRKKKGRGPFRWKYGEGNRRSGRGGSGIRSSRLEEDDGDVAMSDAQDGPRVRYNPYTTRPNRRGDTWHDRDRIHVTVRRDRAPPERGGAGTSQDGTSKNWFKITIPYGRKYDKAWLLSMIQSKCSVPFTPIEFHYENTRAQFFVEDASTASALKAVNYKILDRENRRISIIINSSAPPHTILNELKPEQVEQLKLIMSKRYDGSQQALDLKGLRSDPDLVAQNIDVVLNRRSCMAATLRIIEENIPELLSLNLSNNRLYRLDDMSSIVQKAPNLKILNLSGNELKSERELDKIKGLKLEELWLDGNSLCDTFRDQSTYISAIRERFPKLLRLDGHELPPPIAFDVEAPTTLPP


Legend:
[1] = biological target: T1, Nxf1 (of the Nxf1:p15 used for gel …); test: SEC
GST-Nxf1:p15;Aly = GST-Nxf1:p15;Aly (Homo sapiens;, UniProt Q9UBU9;Q9UKK6;Q9JJW6 1-619;1-140;1-218, |); test: GST pulldown then UV crosslinking
Aly = Aly (UniProt Q9JJW6 1-218); test: UV crosslinking
GST-Nxf1:p15;Aly;Thoc5 = GST-Nxf1:p15;Aly;Thoc5 (Homo sapiens;;Homo sapiens?, UniProt Q9UBU9;Q9UKK6;Q9JJW6;Q13769 1-619;1-140;1-218;1-683, ||); test: GST pulldown then UV crosslinking
6His-RBD-psiRRM-LRR = biological target: T2, 6His-RBD-psiRRM-LRR; test: UV crosslinking
GST-RBD-psiRRM-LRR = biological target: T3, GST-RBD-psiRRM-LRR; test: UV crosslinking

| Binder | stoichiometry N [1] | binding result (GST-Nxf1:p15;Aly) | binding result (Aly) | binding result (GST-Nxf1:p15;Aly;Thoc5) | binding result (6His-RBD-psiRRM-LRR) | binding result (GST-RBD-psiRRM-LRR) |
| --- | --- | --- | --- | --- | --- | --- |
| p15 (natural protein) MASVDFKTYVDQACRAAEEFVNVYYTTMDKRRRLLSRLYMGTATLVWNGNAVSGQESLSEFFEMLPSSEFQISVVDCQPVHDEATPSQTTVLVVICGSVKFEGNKQRDFNQNFILTAQASPSNTVWKIASDCFRFQDWAS | 1 |  |  |  |  |  |
| CAGUCGCAUAGUGCA (ssRNA) [15-mer RNA] |  | binds | binds | binds | binds | binds |
